Patent publication US7229960B2, “Methods and compositions for inhibiting GRB7” (University of Vermont and State Agricultural College, priority 2000, dated 2007)
“Also recorded” adds a separate entry of the source. Non-standard residues stand in square brackets, D forms with d. No end group written: not given here. pY = N[C@@H](Cc1ccc(OP(=O)(O)O)cc1)C(=O)O

Columns and labels:
Grb7-SH2-GST = Grb7-SH2-GST (Homo sapiens, UniProt Q14451); test: Competition ELISA, free synthetic peptide versus Grb7 binding peptide-phage on Grb7-SH2-GST; details: for Inhibition of G7-8NA peptide-phage binding to Grb7-SH2 / Inhibition of G7-18 peptide-phage binding to Grb7-SH2: free synthetic peptide at 1, 10, 100 uM
Excerpt: The G7-18 (FIG. 5A) and G7-8NA (FIG. 5B) peptide-phage were concentrated with standard polyethylene glycol precipitation methods and added to each well (1×10^6 phage/well) in the presence of synthetic peptides or without (control). G7-18 peptide-phage competitors were G7-18, G7-18NATE and G7-8 free synthetic peptides (FIG. 5A). G7-8NA peptide-phage competitors were G7-8, G7-8NA and G7-8NATE free synthetic peptides (FIG. 5B). The synthetic peptides were mixed at different concentrations (1, 10, 100 uM) with peptide-phage before adding to Grb7-SH2-GST. Unbound phage were washed away with Tween-TBS buffer and bound phage were detected with anti-M13-horseradish peroxidase (Amersham-Pharmacia Biotech) and ABTS substrate (Calbiochem). Phage was detected by anti-M13-HRP antibody conjugate and detected using ABTS substrate. Plates were read at OD405.

SH2 domain of human Grb7 = biological target: T1, SH2 domain of human Grb7 (Homo sapiens, UniProt Q14451); test: Phage ELISA, peptide-phage binding to Grb7-SH2 domain-GST; details: for Relative binding affinity for Grb7: ELISA binding assay, comparison among G7BPs; for Effect of mutation of G7BP-4 phage clone on binding to Grb7-SH2-GST: phage ELISA, compared with G7BP-4
T1 construct: The SH2 domain of human Grb7 containing a GST fusion tag; made in house; host or cells: E. coli
Excerpt: The G7BPs were identified using peptide phage display techniques. Two phage display libraries were created and screened that led to the identification of these peptides. The first library was a random peptide phage-display library containing more than 10^7 different cyclic decapeptides flanked at each end by regions of four amino acids, according to the following general motif: X4 C X10 C X4 (X=any amino acid residue, C=cysteine). […] The SH2 domain of human Grb7 containing a GST fusion tag was purified from an E. coli expression system. The random 10mer library was screened using standard phage display methodology (Smith GP. 1985. Science. 228:1315-7). The phage library was added to the target protein which was immobilized on glutathione Sepharose beads (Pharmacia). The unbound phage were removed with a series of washes and the bound phage were eluted by competitive elution with excess glutathione. These bound phage were allowed to infect E. coli in order to amplify the eluted phage. This screening process was repeated two times for a total of three rounds of screening. After the third round of screening, clones from the amplified phage were isolated and sequenced. Thirty-nine clones were characterized and all contained a Y-A/D/E-N motif, where the +2 position was enriched for alanine, aspartic acid, and glutamic acid. The second library, biased for this Y-A/D/E-N motif, was created in the same FuseV phage display system. This biased library contained over 10^6 different clones.
An ELISA binding assay was used to determine whether the peptide-phage bind specifically to the SH2 domain of Grb7, and not to the fusion protein (GST) or other SH2 domains that are homologous to Grb7. The overall methodology of an ELISA is well established. Four different proteins were bound to a polystyrene 96-well plate: Grb7-SH2 domain-GST, GST alone, Grb2-GST and BSA as a non-specific negative control. Preparations of the concentrated Grb7 peptide-phage clones were allowed to bind to these proteins. Non-specific binding was blocked by casein. Binding of phage was detected using an anti-phage antibody conjugated to horseradish peroxidase.
Mutational analysis of G7BP-4 has been conducted to determine which amino acid residues are important in peptide binding to Grb7-SH2 as well as to determine the size restriction of these peptides. The mutations for G7BP-4 include the following: (1) eliminating the 4 amino acids flanking the cysteines ([…], SEQ ID NO:35) referred to as G7BP4-No Arms (NA), (2) mutating the cysteines to serine residues ([…], SEQ ID NO:36), which are structurally very similar, referred to as G7BP4-Ser, (3) mutating the cysteines to valine residues ([…], SEQ ID NO:37), which is similar in structure and charge, and (4) a combination where the cysteines were mutated to serines and the 4 flanking amino acids were removed ([…], SEQ ID NO:38), referred to as G7BP-No Arms(NA)-Ser. The substitutions of valine and serine for cysteine will eliminate the peptides ability to form a disulfide loop. The mutations were created as a DNA oligo, ligated into the fuse5 vector, and expressed as a peptide-phage. The resultant phage were tested in a phage ELISA for their ability to bind to Grb7-SH2-GST. […] Variants of the G7BP-1, G7BP-2, G7BP-3, G7BP-5, G7BP-6 and G7BP-7 which similarly lack the 4 tracking amino acids on both ends can also bind specifically to Grb7. These peptides have the following amino acid sequences respectively: […]

[1] = biological target: association of Grb7 with the ErbB family of receptors (Homo sapiens, UniProt Q14451); test: Co-immunoprecipitation of Grb7 with tyrosine phosphorylated ErbB family in heregulin-stimulated SKBR3 cell lysate; details: for Inhibition of association of Grb7 with the ErbB family: heregulin β1 stimulated SKBR3 lysate, anti-Grb7 IP, anti-phosphotyrosine at 185 kDa, densitometry
Sequence of association of Grb7 with the ErbB family of receptors (Q14451 whole entry): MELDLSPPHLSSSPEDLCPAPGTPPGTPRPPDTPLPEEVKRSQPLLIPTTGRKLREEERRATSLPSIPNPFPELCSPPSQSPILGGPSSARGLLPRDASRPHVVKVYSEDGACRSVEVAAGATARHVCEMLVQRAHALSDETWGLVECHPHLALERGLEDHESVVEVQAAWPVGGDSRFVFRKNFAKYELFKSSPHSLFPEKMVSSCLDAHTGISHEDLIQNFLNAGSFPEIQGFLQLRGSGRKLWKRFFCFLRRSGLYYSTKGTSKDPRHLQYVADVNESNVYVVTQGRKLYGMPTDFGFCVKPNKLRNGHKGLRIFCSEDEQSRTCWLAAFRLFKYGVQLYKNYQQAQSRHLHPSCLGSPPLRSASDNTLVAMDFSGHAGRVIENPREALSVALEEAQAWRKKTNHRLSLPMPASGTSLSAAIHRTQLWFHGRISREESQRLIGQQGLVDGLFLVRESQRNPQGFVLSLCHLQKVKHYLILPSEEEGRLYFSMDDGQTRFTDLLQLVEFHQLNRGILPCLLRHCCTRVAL
Experimental: Two of the Grb7-binding peptides were tested for their ability to inhibit Grb7 from binding its known target molecules, such as ErbB2 and ErbB3, in whole cell extracts. Whole cell extracts were made from the cell line SKBR3, which overexpresses Grb7, ErbB2 and ErbB3. […] The immunoprecipitations were carried out with anti-Grb7 followed by western blot. The western blot was divided so the top half was incubated with anti-phosphotyrosine to detect the associated ErbB family that migrates at 185 kDa. The bottom half of western blot was incubated with anti-Grb7 as a loading control.

Sequence of Grb7-SH2-GST (Q14451 431-527 limits assumed): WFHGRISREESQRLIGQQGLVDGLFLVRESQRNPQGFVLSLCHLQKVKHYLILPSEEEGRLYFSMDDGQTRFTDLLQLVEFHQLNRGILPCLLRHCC
T1 sequence (Q14451 431-527 limits assumed): as above

“C VFWG YAN DWL C (CVFGYANDWLC; Variant of G7BP-4) [G7BP-4NA]” was tested, and the “Inhibition of G7-8NA peptide-phage binding to Grb7-SH2” value (Grb7-SH2-GST) was “inhibition”, the “Relative binding affinity for Grb7” value (SH2 domain of human Grb7) was “lesser affinity” and the “Effect of mutation of G7BP-4 phage clone on binding to Grb7-SH2-GST” value (“Effect of mutation of G7BP-4 phage clone” for short) (SH2 domain of human Grb7) was “did not effect its ability to bind”.
In the case of “DpYVPML (D[pY]VPML) [N1480, reference compound]”, the “Inhibition of Grb7 binding peptide-phage binding to Grb7-SH2” value (Grb7-SH2-GST; phage clone not specified, data not shown) is reported as “No inhibition”.
In the case of “GVSN C VFWG YAN DWL C SDYS (GVSNCVFWGYANDWLCSDYS; Peptide sequence from FuseV Phage Display) [G7BP-4]”, the “Inhibition of G7-8NA peptide-phage binding to Grb7-SH2” value (Grb7-SH2-GST) is reported as “inhibition”, the “Inhibition of G7-18 peptide-phage binding to Grb7-SH2” value (Grb7-SH2-GST; listed as G7-8) is reported as “inhibits; also recorded: inhibition” and the “Relative binding affinity for Grb7” value (SH2 domain of human Grb7) is reported as “higher affinity”.
With “GVSNSVFGYANDWLSSDYS (Variant of G7BP-4) [G7BP4-Ser]” the “Effect of mutation of G7BP-4 phage clone” value (SH2 domain of human Grb7) was “reducing the binding capacity”.
“GVSNVVFGYANDWLVSDYS (Variant of G7BP-4) [SEQ ID NO:37, G7BP-4 with cysteines mutated to valine]” was tested, and the “Effect of mutation of G7BP-4 phage clone” value (SH2 domain of human Grb7) was “reducing the binding capacity”.
In the case of “PQPEYVNQPD (Non-phosphorylated peptide which mimics ErbB2 site) [Y 139]”, the “Inhibition of association of Grb7 with the ErbB family” value [1] is reported as “showed no competition”.
In the case of “RSTL C WFEG YDN TFP C KYFR (RSTLCWFEGYDNTFPCKYFR; Peptide sequence from FuseV Phage Display) [G7BP-5]”, the “Level of inhibition of Grb7 co-immunoprecipitation with the ErbB family” value ([1]; 100 uM, data not shown) is reported as “same levels of inhibition” and the “Inhibition of G7-18 peptide-phage binding to Grb7-SH2” value (Grb7-SH2-GST) is reported as “inhibition”.
In the case of “SVFGYANDWLS (Variant of G7BP-4) [G7BP-No Arms(NA)-Ser]”, the “Effect of mutation of G7BP-4 phage clone” value (SH2 domain of human Grb7) is reported as “reducing the binding capacity”.
“Y1139 peptide: the Y1139 ErbB2-site peptide when it is phosphorylated (PQPEYVNQPD; not fully specified (residue 5))” was tested, and the “Inhibition of association of Grb7 with the ErbB family” value [1] was “does compete”.
“^VFWG YAN DWL C^ (VFWGYANDWLC; cyclised thioether; Variant G7BP-4NATE)” was tested, and the “Inhibition of G7-8NA peptide-phage binding to Grb7-SH2” value (Grb7-SH2-GST; listed as G7-8NATE) was “inhibition; also recorded: to a lesser extent than seen with the disulfide containing peptides”.
